How the values were obtained:
[1] = target: ヒトCD3抗原 (human CD3 antigen on the surface of human T cells) (human) (UniProt P07766); assay: competition with 125I-labelled mouse M291 on IL-2-activated human T cells; affinity by the method of Berzofsky and Berkower
[2] = target: FcRII (Fc gamma receptor II on K562 cells) (UniProt P12318); assay: cell-based or functional assay
UniProt P12318, sequence (P12318 34-317): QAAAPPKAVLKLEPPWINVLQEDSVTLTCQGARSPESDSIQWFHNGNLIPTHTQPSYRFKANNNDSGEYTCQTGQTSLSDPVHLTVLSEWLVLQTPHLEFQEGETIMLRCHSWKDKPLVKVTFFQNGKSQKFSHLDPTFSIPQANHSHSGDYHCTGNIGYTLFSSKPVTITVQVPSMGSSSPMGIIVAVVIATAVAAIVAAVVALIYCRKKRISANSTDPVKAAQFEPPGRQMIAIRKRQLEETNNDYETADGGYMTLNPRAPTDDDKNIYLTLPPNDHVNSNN

UniProt P07766, sequence (P07766 23-207): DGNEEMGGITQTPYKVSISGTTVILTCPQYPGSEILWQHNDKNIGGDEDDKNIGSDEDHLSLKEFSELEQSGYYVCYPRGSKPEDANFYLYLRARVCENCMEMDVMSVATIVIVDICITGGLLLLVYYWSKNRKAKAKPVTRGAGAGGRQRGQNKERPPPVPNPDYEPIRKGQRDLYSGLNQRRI

Substance: ヒト化M291 IgG1 (humanized M291, human IgG1) (from UniProt P01857 1-330) (antibody)
- Ka [1]: 1.6e+09 M⁻¹

Substance: キメラOKT3 IgG2 (chimeric OKT3, wild-type human IgG2) (from UniProt P01859 1-326) (antibody)
- K562細胞の特異的溶解 (reverse lysis, 51Cr release) [2]: < 32%
